{"source": "paper PMC10377357", "about": "(2023)", "parents": {"B1": {"name": "Rps2(1–145)-TurboID [S. cerevisiae] / Pse1 [S. cerevisiae (endogenous in the yeast strains)] (parent complex)", "chain 1": "MSAPEAQQQKRGGFGGRNRGRPNRRGPRNTEEKGWVPVTKLGRLVKAGKITTIEEIFLHSLPVKEFQIIDTLLPGLQDEVMNIKPVQKQTRAGQRTRFKAVVVVGDSNGHVGLGIKTAKEVAGAIRAGIIIAKLSVIPIRRGYWG", "chain 2": "MSALPEEVNRTLLQIVQAFASPDNQIRSVAEKALSEEWITENNIEYLLTFLAEQAAFSQDTTVAALSAVLFRKLALKAPPSSKLMIMSKNITHIRKEVLAQIRSSLLKGFLSERADSIRHKLSDAIAECVQDDLPAWPELLQALIESLKSGNPNFRESSFRILTTVPYLITAVDINSILPIFQSGFTDASDNVKIAAVTAFVGYFKQLPKSEWSKLGILLPSLLNSLPRFLDDGKDDALASVFESLIELVELAPKLFKDMFDQIIQFTDMVIKNKDLEPPARTTALELLTVFSENAPQMCKSNQNYGQTLVMVTLIMMTEVSIDDDDAAEWIESDDTDDEEEVTYDHARQALDRVALKLGGEYLAAPLFQYLQQMITSTEWRERFAAMMALSSAAEGCADVLIGEIPKILDMVIPLINDPHPRVQYGCCNVLGQISTDFSPFIQRTAHDRILPALISKLTSECTSRVQTHAAAALVNFSEFASKDILEPYLDSLLTNLLVLLQSNKLYVQEQALTTIAFIAEAAKNKFIKYYDTLMPLLLNVLKVNNKDNSVLKGKCMECATLIGFAVGKEKFHEHSQELISILVALQNSDIDEDDALRSYLEQSWSRICRILGDDFVPLLPIVIPPLLITAKATQDVGLIEEEEAANFQQYPDWDVVQVQGKHIAIHTSVLDDKVSAMELLQSYATLLRGQFAVYVKEVMEEIALPSLDFYLHDGVRAAGATLIPILLSCLLAATGTQNEELVLLWHKASSKLIGGLMSEPMPEITQVYHNSLVNGIKVMGDNCLSEDQLAAFTKGVSANLTDTYERMQDRHGDGDEYNENIDEEEDFTDEDLLDEINKSIAAVLKTTNGHYLKNLENIWPMINTFLLDNEPILVIFALVVIGDLIQYGGEQTASMKNAFIPKVTECLISPDARIRQAASYIIGVCAQYAPSTYADVCIPTLDTLVQIVDFPGSKLEENRSSTENASAAIAKILYAYNSNIPNVDTYTANWFKTLPTITDKEAASFNYQFLSQLIENNSPIVCAQSNISAVVDSVIQALNERSLTEREGQTVISSVKKLLGFLPSSDAMAIFNRYPADIMEKVHKWFA"}, "B2": {"name": "Rps2(1–145)-TurboID [S. cerevisiae] / Tsr4 [S. cerevisiae (endogenous in YDK11-5A)] (parent complex)", "chain 1": "B1 chain 1", "chain 2": "MSKIEELPPSDTDDHSYSSKPGDVFLAFVDAPVKETDDILVEDSFIGGEPKWLHPDSEPPAELLKCGACKSADNMKLLLQAFSPLDDEQMSAIQQRLGINNMSYINPQDDRVLYVFLCTECQRKGNSVRCIRGVKKNKNVDSLSEKMASTSLEKDFQINPFDLSNNSDSKCNAFSSNPFGGANANPFGADSINSNISQSKDEGKKKESATVSAKTARKLHDLQKDKEYDGNKCFKSCLLYVEEETFKNKKPAHLQLPKNLKIDKEALDLTGDEDLEKDPIKLDPRTEKLSKFLDDDTFQKFQEVVGYNPLQVLRYDLGGKPLLYAETKVDILSTVPRPGYNPSSQRIFEMQLMPKMIFDLEEVVSVDNGMEWGTILVFTDVENYMPEFDEHGVGYVEECVKVQWESRT"}, "B3": {"name": "Rps2(76–145)-TurboID [S. cerevisiae] / Pse1 [S. cerevisiae (endogenous in the yeast strains)] (parent complex)", "chain 1": "LQDEVMNIKPVQKQTRAGQRTRFKAVVVVGDSNGHVGLGIKTAKEVAGAIRAGIIIAKLSVIPIRRGYWG", "chain 2": "B1 chain 2"}}, "data": [{"variants_of": "B1", "assay": "TurboID-based proximity labeling; parent: 2; read off a plot", "values": [{"variant": "chain 1 MSAPEAQQQKRGGFGGRNRGRPNRRGPRNTEEKGWVPVTKLGRLVKAGKITTIEEIFLHSLPVKEFQIIDTLLPGLQDEVMNIKPVQKQTRAGQATAFAAVVVVGDSNGHVGLGIKTAKEVAGAIRAGIIIAKLSVIPIRRGYWG", "enrichment": "~0.9 log2 fold change vs controls"}]}, {"variants_of": "B1", "assay": "TurboID-based proximity labeling; parent: 30; read off a plot", "units": {"response": "normalized iBAQ"}, "values": [{"variant": "chain 1 MSAPEAQQQKRGGFGGRNRGRPNRRGPRNTEEKGWVPVTKLGRLVKAGKITTIEEIFLHSLPVKEFQIIDTLLPGLQDEVMNIKPVQKQTRAGQATAFAAVVVVGDSNGHVGLGIKTAKEVAGAIRAGIIIAKLSVIPIRRGYWG", "response": "~26"}]}, {"variants_of": "B2", "assay": "TurboID-based proximity labeling; parent: 5.9; read off a plot", "values": [{"variant": "chain 1 MSAPEAQQQKRGGFGGRNRGRPNRRGPRNTEEKGWVPVTKLGRLVKAGKITTIEEIFLHSLPVKEFQIIDTLLPGLQDEVMNIKPVQKQTRAGQATAFAAVVVVGDSNGHVGLGIKTAKEVAGAIRAGIIIAKLSVIPIRRGYWG", "enrichment": "~5.9 log2 fold change vs controls"}]}, {"variants_of": "B2", "assay": "TurboID-based proximity labeling; parent: 210; read off a plot", "units": {"response": "normalized iBAQ"}, "values": [{"variant": "chain 1 MSAPEAQQQKRGGFGGRNRGRPNRRGPRNTEEKGWVPVTKLGRLVKAGKITTIEEIFLHSLPVKEFQIIDTLLPGLQDEVMNIKPVQKQTRAGQATAFAAVVVVGDSNGHVGLGIKTAKEVAGAIRAGIIIAKLSVIPIRRGYWG", "response": "~260"}]}, {"variants_of": "B3", "assay": "TurboID-based proximity labeling; baits expressed from plasmid under the copper-inducible CUP1 promoter; parent: 3.1; read off a plot", "values": [{"variant": "chain 1 LQDEVMNIKPVQKQTRAGQATAFAAVVVVGDSNGHVGLGIKTAKEVAGAIRAGIIIAKLSVIPIRRGYWG", "enrichment": "~-0.4 log2 fold change vs controls"}]}, {"variants_of": "B3", "assay": "TurboID-based proximity labeling; baits expressed from plasmid under the copper-inducible CUP1 promoter; parent: 100; read off a plot", "units": {"response": "normalized iBAQ"}, "values": [{"variant": "chain 1 LQDEVMNIKPVQKQTRAGQATAFAAVVVVGDSNGHVGLGIKTAKEVAGAIRAGIIIAKLSVIPIRRGYWG", "response": "~9"}]}]}
